From patent US4701455A, “Biopterin analogs” (Burroughs Wellcome Co., priority 1983, dated 1987)

Tested on: C[C@H](O)[C@H](O)[C@H]1CNc2nc(N)[nH]c(=O)c2N1
Test: purified protein, by the assay type
Conditions: other: Km of substrate (tyrosine) with the pterin as cofactor

Sequence of Tyrosine hydroxylase (Homo sapiens) (chain, as listed by the source): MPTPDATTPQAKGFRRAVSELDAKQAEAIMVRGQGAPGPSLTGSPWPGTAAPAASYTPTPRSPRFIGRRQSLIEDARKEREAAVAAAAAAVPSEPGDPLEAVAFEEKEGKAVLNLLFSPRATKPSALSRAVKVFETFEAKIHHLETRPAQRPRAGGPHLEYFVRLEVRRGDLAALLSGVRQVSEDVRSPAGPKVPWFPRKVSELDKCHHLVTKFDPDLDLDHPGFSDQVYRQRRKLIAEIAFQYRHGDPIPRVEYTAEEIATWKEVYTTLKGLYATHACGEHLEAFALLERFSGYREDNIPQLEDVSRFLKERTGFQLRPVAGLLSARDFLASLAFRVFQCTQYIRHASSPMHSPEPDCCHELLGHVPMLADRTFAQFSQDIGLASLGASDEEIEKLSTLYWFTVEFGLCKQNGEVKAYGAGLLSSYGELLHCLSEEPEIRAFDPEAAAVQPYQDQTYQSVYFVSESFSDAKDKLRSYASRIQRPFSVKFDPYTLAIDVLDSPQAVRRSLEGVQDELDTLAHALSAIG

Tyrosine hydroxylase (Homo sapiens)
Km: 16.0 µM
